# “Also recorded” adds a separate entry of the source.
# B1: EpCAM-AsiC: EpCAM aptamer-siRNA chimera, siRNA cargo not specified at the place; 2'-fluoropyrimidines, 3'-dTdT (nucleic acid)
# sense: GCGACUGGUUACCCGGUCGUUUUGAAGAAGAUCACCCUCCUUATT
# antisense: UAAGGAGGGUGAUCUUCUUCATT
# modifications: DNA at T, 2'-fluoro at CU, RNA at AG, backbone not given here; further chemistry not fully specified
# notes: EpCAM aptamer-siRNA chimera, siRNA cargo not specified at the place; 2'-fluoropyrimidines, 3'-dTdT
# B2: PLK1 EpCAM-AsiC: EpCAM aptamer linked by U-U-U to PLK1 siRNA sense strand (SEQ ID NO: 1), annealed to antisense strand (SEQ ID NO: 2) (nucleic acid)
# sense: B1 sense
# antisense: UAAGGAGGGUGAUCUUCUUCATT
# modifications: DNA at T, 2'-fluoro at CU, RNA at AG, backbone not given here; EpCAM aptamer fused to sense strand
# Experiments:
# [1] = test system: human breast tumor and normal breast tissue biopsies; assay: Uptake in human breast tumor and normal tissue biopsy explants; type: cell-based; details: 2 μM; 24 h; flow cytometry of single cell suspensions
# From the text: It was next examined whether EpCAM-AsiCs concentrate in human breast tumors relative to normal breast samples within intact tissues. Paired normal tissue and breast tumor biopsies from 3 breast cancer patients were cut into cubes with −3 mm edges and placed in Petri dishes. The tumor sample cells were all EpCAM^bright and the normal tissue cells were EpCAM^dim (FIG. 3A). Fluorescently labeled Alexa647-siRNAs (not expected to be taken up by either normal tissue or tumor), Alexa647-cholesterol-conjugated siRNAs (chol-siRNAs, expected to be taken up by both), or Cy3-EpCAM-AsiCs were added to the culture medium and the tissues were incubated for 24 hr before harvest. The Cy3 signal of the AsiC, which could be visualized by the naked eye, concentrated only in the tumor specimens and was not detected in normal tissue (FIG. 3B). To quantify RNA uptake, flow cytometry analysis was performed on washed single cell suspensions of the tissue specimens (representative tumor-normal tissue pair (FIG. 3C), mean±SD of triplicate biospies from 3 EpCAM^bright paired breast tumor-normal tissue samples (FIG. 3D)). […] Thus, within intact tissue, EpCAM-AsiCs are selectively delivered to EpCAM^bright tumors relative to normal tissue. […]
# [2] = Serum stability, serum species not stated; type: in vitro ADME; details: 2'-fluoropyrimidine AsiC
# [3] = Stability in human serum (denaturing PAGE, densitometry); type: in vitro ADME; details: 2'-fluoropyrimidine AsiC
# Method: Aliquots were removed at regular intervals and resuspended in gel loading buffer and stored at −80° C. before electrophoresis on denaturing PAGE gels. The average intensity (+S.E.M.) of bands from 2 independent experiments quantified by densitometry after staining is shown.
# EpCAM-AsiC targeting GFP synthesized using 2′-fluoro-pyrimidines, chemically-stabilized 21-mer cholesterol-conjugated GFP-siRNAs (chol-siRNA), and unmodified 21-mer GFP-siRNA, each in 100 ul PBS, which were added to 100 μl of human or mouse serum. At regular intervals, 20 μL was removed, and resuspended in gel loading buffer and frozen at −80° C. before being electrophoresed on a denaturing PAGE gel. FIG. 30A depicts representative PAGE gels and FIG. 30B depicts graphs of the average intensity (+S.E.M.) of bands from two independent experiments analyzed by densitometry. Both the stabilized cholesterol-conjugated siRNA and the EpCAM-AsiC are stable over the 36 h of the experiment.
# MB468-luc cells = assay: Tumor initiation by ex vivo treated EpCAM+ cells in nude mice; details: cells treated ex vivo 24 h/overnight, then implanted, imaged 20 days
# Method: For tumor initiation studies 8-week old female Nu/J mice (Stock #002019, Jackson Laboratories) were injected subcutaneously with MB468-luc (5×10^6) cells pretreated for 24 h with EpCAM-AsiC-GFP, EpCAM-AsiC-PLK1 or untreated. Cells were trypsinized with Tryple Express (Invitrogen), resuspended in WIT media and injected subcutaneously in the flank. Following intraperitoneal injection of 150 mg/kg D-luciferin (Caliper Life Sciences) luminescent images of the whole body were taken every 5 days for a total of 20 days using the IVIS Spectra system (Caliper Life Sciences).
# MB231-luc-mCherry tumors = assay: Tumor inhibition, EpCAM− MB231-luc-mCherry xenograft; type: in vivo, nude mice; details: 5 mg/kg sc every 3 d (72 h) for 2 wks
# Method: For tumor inhibition studies, MB468-luc (5×10^6) and MB231-luc-mCherry (5×10^5) cells trypsinized with Tryple Express (Invitrogen), resuspended in a 1:1 WIT-Matrigel solution and injected subcutaneously in the flank of 8-week old female Nu/J mice (Stock #002019, Jackson Laboratories). Tumors size was analyzed daily using the IVIS Spectra, after 5 days tumors were clearly visible. […] Mice were treated every 72 h for 14 days.
# [4] = test system: basal-B TNBC cells (MB436, MB231); assay: Tumor initiation by ex vivo treated EpCAM− basal-B cells in nude mice; details: cells treated ex vivo overnight, then implanted; listed as PLK1 EpCAM-AsiCs
# From the text: EpCAM was chosen for targeting in part because EpCAM marks T-ICs and metastasis-initiating cells (M-IC).^20,22,26,27,31 To investigate whether EpCAM-AsiCs inhibit T-ICs, we compared colony and mammosphere formation (T-IC functional surrogate assays) after mock treatment, treatment with paclitaxel or with EpCAM-AsiCs against eGFP or PLK1. […] T-IC inhibition was specific, since eGFP AsiCs had no effect. […] To evaluate the effect of EpCAM-AsiCs on tumor initiation, EpCAM+MB468 cells stably expressing luciferase were treated overnight with medium or PLK1 or eGFP EpCAM-AsiCs and equal numbers of viable cells were then implanted sc in nude mice. […] Thus PLK1 EpCAM-AsiCs inhibit in vitro T-IC assays and tumor initiation selectively for EpCAM+ breast cancers.
# EpCAM-AsiCs inhibit T-ICs of EpCAM+ tumors. EpCAM was chosen for targeting partly because EpCAM marks T-ICs and metastasis-initiating cells (M-IC). To investigate whether EpCAM-AsiCs inhibit T-ICs, we compared colony and mammosphere formation (T-IC functional surrogates) after mock treatment, treatment with paclitaxel or with EpCAM-AsiCs against eGFP or PLK1. […] To evaluate EpCAM-AsiC's effect on tumor initiation, viable luc+ EpCAM+ MB468 and EpCAM− MB231 cells, treated overnight with medium or PLK1 or GFP EpCAM-AsiCs, were implanted sc in nude mice. […] Thus EpCAM-AsiCs inhibit tumor initiation in EpCAM+ breast cancers.
# MCF10CA1a (CA1a) tumor = assay: MCF10CA1a tumor growth, AsiC injected sc near the tumor; type: in vivo, mice; details: luminescent photon flux, N=4
# Method: The top panel depicts the experimental scheme. In this experiment the AsiCs were injected sc in the flank near the tumor, but not into the tumor. The bottom panel depicts a graph of Log2 total luminescent photon flux of the tumors (N=4); *, P<0.05 by Student's t-test.
# [5] = listed as EpCAM-AsiC targeting PLK1
Molecule,uptake by breast tumor vs normal tissue [1],serum T1/2 [2] [h],T1/2 in human serum [3] [h],"tumor initiation, EpCAM+ cells (MB468-luc cells; [5])","tumor initiation, EpCAM+ cells (MB468-luc cells; listed as PLK1 EpCAM-AsiCs)",growth of EpCAM− MB231 tumors (MB231-luc-mCherry tumors; [5]),growth of EpCAM− MB231 tumors (MB231-luc-mCherry tumors; listed as PLK1-targeting AsiCs),growth of EpCAM− MB231 tumors (MB231-luc-mCherry tumors; listed as PLK1 EpCAM-AsiCs),"tumor initiation, EpCAM− basal-B cells [4]",MCF10CA1a tumor growth (MCF10CA1a (CA1a) tumor)
B1,concentrated only in the tumors,> 72,> 36,,,,,,,
B2,,,,did not show any sign of a tumor after 20 days; also recorded: no tumor initiation,completely blocked tumor formation; also recorded: eliminated tumor initiation by basal-like TNBCs; also recorded: eliminated their ability to form tumors in nude mice,remained unchanged,continued to grow,had no effect on EpCAM− mesenchymal TNBCs; also recorded: had no effect on EpCAM− basal-B xenografts,had no effect on basal-B TNBC tumor initiation; also recorded: only in EpCAM+ tumors,suppresses MCF10CA1a (CA1a) tumor growth
